# Results published in article PMC11322871, “AlphaFold2 assists in providing novel mechanistic insights into the interactions among the LUBAC subunits” (Acta Biochimica et Biophysica Sinica, 2024).
# B1: HOIP (629-695) (domain or fragment)
# chain: PEPTPSWDGPDKQSLVRRLLAVYALPSWGRAELALSLLQETPRNYELGDVVEAVRHSQDRAFLRRLL
# B2: HOIL-1L-UBL domain (residues 55-135) (domain or fragment, human, UniProt Q9BYM8-1 55-135, looked up)
# chain: IRLWVSVEDAQMHTVTIWLTVRPDMTVASLKDMVFLDYGFPPVLQQWVIGQRLARDQETLHSHGVRQNGDSAYLYLLSARN
# notes: HOIL-1L, human, UBL domain, residues 55-135; also called HOIL-UBL
# Columns and labels:
# [1] = target: HOIP-UBA domain (residues 466-629) (human) (UniProt Q96EP0); assay: SPR; Biacore T200; the HOIL-1L and SHARPIN constructs mixed at the same concentration and incubated at 16°C for 2 h before analysis against HOIP-UBA (466-630); who was immobilised is not stated
# [2] = target: B2; assay: ITC; MicroCal PEAQ-ITC; cell and syringe not stated
# [3] = target: B2; assay: SPR; Biacore T200; HOIL-1L-UBL immobilised on the sensor chip, HOIP fragments flowed over
# HOIP (466-695) [4] = target: T1, HOIP (466-695) (human, UniProt Q96EP0 466-695); assay: ITC; MicroCal PEAQ-ITC; cell and syringe not stated; conditions: both partners purified
# T1 construct: HOIP, human, residues 466-695 (HOIP-UBA together with HOIP 629-695); also called HOIP domain (residues 466-695)
# T1 sequence (looked up): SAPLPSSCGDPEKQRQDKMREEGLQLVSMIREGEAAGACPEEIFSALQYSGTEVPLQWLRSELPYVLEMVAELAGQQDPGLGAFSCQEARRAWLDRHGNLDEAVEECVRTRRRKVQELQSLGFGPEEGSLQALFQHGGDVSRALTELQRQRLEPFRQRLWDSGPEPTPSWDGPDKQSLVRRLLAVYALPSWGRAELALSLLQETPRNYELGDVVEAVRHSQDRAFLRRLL
# HOIP (466-695) [5] = target: T1, HOIP (466-695); assay: SPR; Biacore T200; HOIL-1L-UBL immobilised on the sensor chip, HOIP fragments flowed over; conditions: both partners purified
molecule,measurement,setting,value
"HOIL-1L (5-135) and SHARPIN (127-309), containing the LTM domain, mixed before SPR (from UniProt Q9BYM8-1 5-135; Q9H0F6 127-309) (complex)",Kd,[1],496 nM
"HOIL-1L-UBL and SHARPIN-UBL without the LTM domain, mixed before SPR (from UniProt Q9BYM8-1 55-135; Q9H0F6 206-309) (complex)",Kd,[1],72.1 nM
HOIP-UBA domain (residues 466-629) (from UniProt Q96EP0 466-629) (domain or fragment),Kd,[2],4300 nM
same,Kd,[3],543 nM
B1,Kd,[3]; both partners purified,989 nM
B2,Kd,HOIP (466-695) [4],800 ± 200 nM
same,Kd,HOIP (466-695) [5],359 nM
